The numbers were not newly measured in paper PMC11544004, which cites them from elsewhere.

The target in data set [1] is PVR (CD155) (Homo sapiens) (UniProt P15151).
Another data set has as its target CD80 (Homo sapiens) (UniProt P33681).
The target in the next data set is CD86 (Homo sapiens) (UniProt P42081).
Sequence of UniProt P42081 (P42081 24-247): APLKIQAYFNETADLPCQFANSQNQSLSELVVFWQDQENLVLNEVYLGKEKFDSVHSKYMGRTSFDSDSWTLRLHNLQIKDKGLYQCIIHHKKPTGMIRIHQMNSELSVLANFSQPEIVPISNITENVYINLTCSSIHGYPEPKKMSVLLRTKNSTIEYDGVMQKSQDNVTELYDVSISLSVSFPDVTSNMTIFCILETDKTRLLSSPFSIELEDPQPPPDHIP

Sequence of UniProt P33681 (P33681 35-242): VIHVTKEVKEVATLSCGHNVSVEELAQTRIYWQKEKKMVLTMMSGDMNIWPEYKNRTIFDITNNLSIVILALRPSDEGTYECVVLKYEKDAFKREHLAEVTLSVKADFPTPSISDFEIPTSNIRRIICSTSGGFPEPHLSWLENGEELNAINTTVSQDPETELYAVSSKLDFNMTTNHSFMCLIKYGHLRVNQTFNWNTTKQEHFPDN
Sequence of UniProt P15151 (P15151 21-343): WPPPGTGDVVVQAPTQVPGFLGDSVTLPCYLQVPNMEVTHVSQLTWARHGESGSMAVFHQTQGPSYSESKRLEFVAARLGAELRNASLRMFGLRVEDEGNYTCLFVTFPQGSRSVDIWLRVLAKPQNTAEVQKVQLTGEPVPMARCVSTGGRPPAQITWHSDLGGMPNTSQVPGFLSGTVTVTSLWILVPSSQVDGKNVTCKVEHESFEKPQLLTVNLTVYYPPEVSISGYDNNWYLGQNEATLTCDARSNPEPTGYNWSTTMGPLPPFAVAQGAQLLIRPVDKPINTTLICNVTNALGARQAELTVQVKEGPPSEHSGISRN

For orientation: Kd means a measure of binding affinity in units of concentration. Consider TIGIT (from UniProt Q495A1), for which the Kd in data set [1] is 0.002 µM. Consider CD28 (from UniProt P10747), for which the results for the Kd in the data set with CD80 (Homo sapiens) and in the data set with CD86 (Homo sapiens) were 4 µM and 20 µM, respectively.
